Key:
caspase-9 [1] = target: T1, caspase-9 (Homo sapiens, UniProt P55211); test: Co-immunoprecipitation of survivin and caspase-9 from HeLa cells; assay type: binding; details: viable HeLa cells 24 h after transfection
T1 construct: immunoprecipitated with an antibody to HA followed by Western blotting with an antibody to caspase-9; endogenous in cells; host or cells: HeLa
T1 sequence (P55211 1-416): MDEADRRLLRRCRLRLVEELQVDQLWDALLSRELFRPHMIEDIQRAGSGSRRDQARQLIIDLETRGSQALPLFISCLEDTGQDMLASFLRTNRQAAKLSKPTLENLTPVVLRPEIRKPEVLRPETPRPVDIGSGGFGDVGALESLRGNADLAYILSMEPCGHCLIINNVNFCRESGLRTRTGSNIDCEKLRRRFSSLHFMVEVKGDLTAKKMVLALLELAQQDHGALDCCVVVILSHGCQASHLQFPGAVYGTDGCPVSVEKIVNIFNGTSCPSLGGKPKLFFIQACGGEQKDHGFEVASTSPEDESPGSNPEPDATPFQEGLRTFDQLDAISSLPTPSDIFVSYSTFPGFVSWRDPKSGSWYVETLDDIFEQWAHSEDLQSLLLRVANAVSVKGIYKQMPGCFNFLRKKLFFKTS
Protocol: (§1) Asynchronously growing HeLa cells were transfected with HA-wild type survivin (WT) or HA-survivin(T34A) (T34A), detergent-solubilized after 24 h and immunoprecipitated with an antibody to HA followed by Western blotting with an antibody to caspase-9. Arrow, position of 46 kDa proform caspase-9.
(§2) HeLa cells were transfected with the indicated HA-constructs, synchronized to the G1/S boundary by a 16-h treatment with thymidine and released. Aliquots of the various cultures were immunoprecipitated at the indicated time intervals with an antibody to HA, and immunoblotted with antibodies to caspase-9 or HA. P, pellet; S, supernatant. For all panels, molecular weight markers are indicated on the left.
(§3) Transfection experiments. For transient transfection, HeLa cells in C-6 tissue culture plates (Costar, Cambridge, Mass.) at ˜60-70% confluency, were incubated in 1 ml of serum-free OptiMEM medium (Life Technologies, Gaithersburg, Md.) for 20 min, and transfected with 2.5 μg of the various plasmid cDNAs plus 9 μl Lipofectamine (Life Technologies). After a 5 h incubation at 37° C., the mixture was aspirated and substituted with complete growth medium for 48-72 h. […] Gated GFP-expressing cells were analyzed for DNA content by flow cytometry on a FACSort (Becton Dickinson, San Jose, Calif.) using a Cell Quest software. […]

caspase-9 [2] = test: as above; assay type: binding; details: synchronized HeLa cells entering mitosis 12 h after thymidine release
Protocol: as §1, §2, §3

## survivin(T34A): dominant-negative, non-phosphorylatable survivin mutant with Thr34→Ala substitution, expressed from transfected cDNA (also HA- or GFP-tagged)
caspase-9 [1]
  caspase-9 associated with HA immunoprecipitates by Western blotting: presence of associated ˜46 kDa proform caspase-9
caspase-9 [2]
  caspase-9 associated with HA immunoprecipitates by Western blotting: did not contain associated proform or active caspase-9 bands

— patent US7553821B2, “Methods for selectively modulating survivin apoptosis pathways” (Yale University, priority 2000, dated 2009)
